Biological target: recombinant preparation of soluble MAC-1 (UniProt P11215)
Assay: MAC-1 capture ELISA over total F(ab')2 ELISA; 5 weeks of storage, all formulations F1-F5

Q: For “recombinant humanized anti-CD18 antibody (rhuMAb CD18)”, which loss of specific activity at 40°C relative to -70°C is on record?
A: The loss of specific activity at 40°C relative to -70°C was 10 to 15%.
